The target in this experiment is T1, human fibrinogen (human, UniProt P02671 20-629; P02675 31-491; P02679 27-437, limits assumed).
T1 construct: Bought protein, used as the negative control antigen; also called fibrinogen from human (Sigma)
T1 sequence (looked up) 1: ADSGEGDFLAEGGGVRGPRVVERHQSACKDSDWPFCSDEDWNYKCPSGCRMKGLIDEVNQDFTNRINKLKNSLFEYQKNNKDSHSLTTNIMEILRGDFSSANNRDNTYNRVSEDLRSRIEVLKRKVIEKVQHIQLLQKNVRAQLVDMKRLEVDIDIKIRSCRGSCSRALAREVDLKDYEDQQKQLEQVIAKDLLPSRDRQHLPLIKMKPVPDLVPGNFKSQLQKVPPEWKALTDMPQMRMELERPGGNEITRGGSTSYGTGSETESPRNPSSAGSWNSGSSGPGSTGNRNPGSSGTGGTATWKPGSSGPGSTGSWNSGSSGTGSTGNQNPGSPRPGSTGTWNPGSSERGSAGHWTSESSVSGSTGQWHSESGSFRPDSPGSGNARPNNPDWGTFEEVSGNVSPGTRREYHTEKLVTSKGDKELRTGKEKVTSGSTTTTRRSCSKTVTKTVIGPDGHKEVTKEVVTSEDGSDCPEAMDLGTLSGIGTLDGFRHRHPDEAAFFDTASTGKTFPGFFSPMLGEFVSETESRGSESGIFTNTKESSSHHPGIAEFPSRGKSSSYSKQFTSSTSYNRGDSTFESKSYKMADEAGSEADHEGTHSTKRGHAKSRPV
T1 sequence (looked up) 2: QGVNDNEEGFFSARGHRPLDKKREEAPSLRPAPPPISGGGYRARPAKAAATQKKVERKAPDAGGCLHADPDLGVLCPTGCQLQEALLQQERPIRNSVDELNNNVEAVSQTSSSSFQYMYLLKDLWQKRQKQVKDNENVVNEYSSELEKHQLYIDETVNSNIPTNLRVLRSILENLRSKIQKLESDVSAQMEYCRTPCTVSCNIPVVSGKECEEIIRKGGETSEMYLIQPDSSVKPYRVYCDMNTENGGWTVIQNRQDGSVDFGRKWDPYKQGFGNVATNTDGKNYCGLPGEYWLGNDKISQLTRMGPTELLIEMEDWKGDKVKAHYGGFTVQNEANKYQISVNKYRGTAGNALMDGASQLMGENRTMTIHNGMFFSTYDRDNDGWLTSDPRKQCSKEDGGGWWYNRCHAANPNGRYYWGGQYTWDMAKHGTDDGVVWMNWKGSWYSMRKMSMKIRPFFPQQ
T1 sequence (looked up) 3: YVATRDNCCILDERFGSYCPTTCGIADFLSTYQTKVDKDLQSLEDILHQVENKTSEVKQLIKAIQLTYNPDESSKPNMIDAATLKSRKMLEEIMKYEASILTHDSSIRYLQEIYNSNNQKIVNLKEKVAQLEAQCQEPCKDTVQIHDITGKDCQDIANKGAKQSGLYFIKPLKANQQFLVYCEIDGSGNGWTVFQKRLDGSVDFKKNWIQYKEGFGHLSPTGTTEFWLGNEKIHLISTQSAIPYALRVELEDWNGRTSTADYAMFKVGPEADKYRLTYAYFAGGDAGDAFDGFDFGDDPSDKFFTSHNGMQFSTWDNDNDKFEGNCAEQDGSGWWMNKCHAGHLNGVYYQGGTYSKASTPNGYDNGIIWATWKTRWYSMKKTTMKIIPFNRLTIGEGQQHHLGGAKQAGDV
Briefly: ELISA, HRP-conjugated polyclonal rabbit anti-reteplase antibody.

B1: recombinant (3D5 VL-(G4S)3-VH scFv α fibrin)-reteplase polypeptide (other)
chain: DIQMTQSPSSLSASVGDRVTITCRASQDVSNNVAWYQQKPGKAPKLLIFWSPWLYSGVPSRFSGSGSGTDFTLTISSLQPEDFATYYCQQGWDSPVTFGQGTKVEIKRGSTSGSGKPGSGEGSTKGEVQLVESGGGLVQPGGSLRLSCAASGFTISDFGIHWVRQAPGKGLEWVASIWPSGGYTYYADSVKGRFTISADTSKNTAYLQMNSLRAEDTAVYYCARSWFYSWYDYWGQGTLVTVSSASGGGGSGGGGSGGGGSSYQGNSDCYFGNGSAYRGTHSLTESGASCLPWNSMILIGKVYTAQNPSAQALGLGKHNYCRNPDGDAKPWCHVLKNRRLTWEYCDVPSCSTCGLRQYSQPQFRIKGGLFADIASHPWQAAIFAKHRRSPGERFLCGGILISSCWILSAAHCFQERFPPHHLTVILGRTYRVVPGEEEQKFEVEKYIVHKEFDDDTYDNDIALLQLKSDSSRCAQESSVVRTVCLPPADLQLPDWTECELSGYGKHEALSPFYSERLKEAHVRLYPSSRCTSQHLLNRTVTDNMLCAGDTRSGGPQANLHDACQGDSGGPLVCLNDGRMTLVGIISWGLGCGQKDVPGVYTKVTNYLDWIRDNMRPA
notes: Fusion: 3D5 scFv (VL, flexible linker, VH) at the N-terminus of reteplase through a flexible linker; also called (3D5 scFv)-reteplase
Regarding B1, the binding result is listed as “no binding”.

For the origin of these results see US20200157519A1 (IMMUNWORK, published 2020).
